According to paper doi:10.1101/2021.04.18.440036:
Where “and” joins values, the source holds several entries; their conditions need not be identical. Equal entries are not always repeated.

Biological target: protective antigen (PA) prepore (Bacillus anthracis)
Assay: cryo-EM structure

“protective antigen (PA) prepore (complex)” was tested, and the stoichiometry N was 7 and 8.
